In one data set the test system is CYP2C8. As to conditions: ref Ong et al., 2000; cited from earlier work.
Data set [1] deals with human liver microsomes (HLM). The data set is described as follows: CYP inhibition: 4-HPR metabolite formation in HLM with CYP inhibitors. Format: in vitro ADME. As to conditions: HLM + 4-HPR; inhibitor alone at 100 µM.
Substrate in data set [2]: CC1=C(/C=C/C(C)=C/C=C/C(C)=C/C(=O)Nc2ccc(O)cc2)C(C)(C)CCC1
The data set is described as follows: Glucuronidation of 4-HPR by UGT 1A1 supersomes. Format: in vitro ADME, human. As to conditions: other: UGT 1A1, 1 mg·mL^−1; 4-HPR 0-2000 µM, 3 h; 37.0 °C.

Substrate in data set [3]: CC1=C(/C=C/C(C)=C/C=C/C(C)=C/C(=O)Nc2ccc(O)cc2)C(C)(C)CCC1
Briefly: Glucuronidation of 4-HPR by UGT 1A6 supersomes. Format: in vitro ADME, human. As to conditions: other: UGT 1A6, 1 mg·mL^−1; 4-HPR 0-2000 µM, 3 h; 37.0 °C.

Substrate in data set [4]: CC1=C(/C=C/C(C)=C/C=C/C(C)=C/C(=O)Nc2ccc(O)cc2)C(C)(C)CCC1
The data set is described as follows: Metabolism of 4-HPR by CYP2C8 supersomes. Format: in vitro ADME, human. As to conditions: other: CYP2C8 supersomes; 4-HPR 0-20 µM, 3 h; 37.0 °C.

Substrate in data set [5]: CC1=C(/C=C/C(C)=C/C=C/C(C)=C/C(=O)Nc2ccc(O)cc2)C(C)(C)CCC1
Format: in vitro ADME, human. As to conditions: other: CYP2C8*3, E. coli membranes; 4-HPR 0-20 µM, 3 h; pH 5.0.

Substrate in data set [6]: CC1=C(/C=C/C(C)=C/C=C/C(C)=C/C(=O)Nc2ccc(O)cc2)C(C)(C)CCC1
The data set is described as follows: Metabolism of 4-HPR by CYP3A5 supersomes. As to conditions: other: CYP3A5 supersomes; 4-HPR 0-20 µM, 3 h; 37.0 °C. Format: in vitro ADME, human.

Substrate in data set [7]: CC1=C(/C=C/C(C)=C/C=C/C(C)=C/C(=O)Nc2ccc(O)cc2)C(C)(C)CCC1
The data set is described as follows: Glucuronidation of 4-HPR by UGT 1A3 supersomes. Format: in vitro ADME, human. As to conditions: other: UGT 1A3, 1 mg·mL^−1; 4-HPR 0-2000 µM, 3 h; 37.0 °C.

As usually defined, the Km is the concentration of substrate that gives half-maximal velocity.

Where a chain is given by its changes, count along the chain named. Names and notes keep the numbering of the source. Values joined by “and” are separate entries in the source; they are usually repeats but may differ in a detail not shown here. Equal values may be shown once. Read-outs that look alike come from different tables or passages of the source.

Consider `CC(=O)N1CCN(c2ccc(OCC3COC(Cn4ccnc4)(c4ccc(Cl)cc4Cl)O3)cc2)CC1` (centres unmarked) [Ketoconazole, ketoconazole], for which the “concentrations at which CYP2C8 is markedly inhibited” value in the data set on CYP2C8 is given as > 10 µM.
Regarding `COc1ccc2[nH]c([S+]([O-])Cc3ncc(C)c(OC)c3C)nc2c1` (centres unmarked) [Omeprazole, omeprazole], the “effect on production of 4′-OH 4-HPR and 4′-oxo 4-HPR, inhibitor alone” value in data set [1] was “very little effect”.

B1: UGT 1A1 (Homo sapiens) (protein)
chain: HAGKILLIPVDGSHWLSMLGAIQQLQQRGHEIVVLAPDASLYIRDGAFYTLKTYPVPFQREDVKESFVSLGHNVFENDSFLQRVIKTYKKIKKDSAMLLSGCSHLLHNKELMASLAESSFDVMLTDPFLPCSPIVAQYLSLPTVFFLHALPCSLEFEATQCPNPFSYVPRPLSSHSDHMTFLQRVKNMLIAFSQNFLCDVVYSPYATLASEFLQREVTVQDLLSSASVWLFRSDFVKDYPRPIMPNMVFVGGINCLHQNPLSQEFEAYINASGEHGIVVFSLGSMVSEIPEKKAMAIADALGKIPQTVLWRYTGTRPSNLANNTILVKWLPQNDLLGHPMTRAFITHAGSHGVYESICNGVPMVMMPLFGDQMDNAKRMETKGAGVTLNVLEMTSEDLENALKAVINDKSYKENIMRLSSLHKDRPVEPLDLAVFWVEFVMRHKGAPHLRPAAHDLTWYQYHSLDVIGFLLAVVLTVAFITFKCCAYGYRKCLGKKGRVKKAHKSKTH
In the case of B1, the Michaelis constant (Km) in data set [2] is 716 ± 87 µM.

B2: UGT 1A6 (Homo sapiens) (protein)
chain: DKLLVVPQDGSHWLSMKDIVEVLSDRGHEIVVVVPEVNLLLKESKYYTRKIYPVPYDQEELKNRYQSFGNNHFAERSFLTAPQTEYRNNMIVIGLYFINCQSLLQDRDTLNFFKESKFDALFTDPALPCGVILAEYLGLPSVYLFRGFPCSLEHTFSRSPDPVSYIPRCYTKFSDHMTFSQRVANFLVNLLEPYLFYCLFSKYEELASAVLKRDVDIITLYQKVSVWLLRYDFVLEYPRPVMPNMVFIGGINCKKRKDLSQEFEAYINASGEHGIVVFSLGSMVSEIPEKKAMAIADALGKIPQTVLWRYTGTRPSNLANNTILVKWLPQNDLLGHPMTRAFITHAGSHGVYESICNGVPMVMMPLFGDQMDNAKRMETKGAGVTLNVLEMTSEDLENALKAVINDKSYKENIMRLSSLHKDRPVEPLDLAVFWVEFVMRHKGAPHLRPAAHDLTWYQYHSLDVIGFLLAVVLTVAFITFKCCAYGYRKCLGKKGRVKKAHKSKTH
On to B2, for which, in data set [3], the Michaelis-Menten constant (Km) came out at 422 ± 46 µM.

B3: CYP2C8 (Homo sapiens) (protein)
chain: MEPFVVLVLCLSFMLLFSLWRQSCRRRKLPPGPTPLPIIGNMLQIDVKDICKSFTNFSKVYGPVFTVYFGMNPIVVFHGYEAVKEALIDNGEEFSGRGNSPISQRITKGLGIISSNGKRWKEIRRFSLTTLRNFGMGKRSIEDRVQEEAHCLVEELRKTKASPCDPTFILGCAPCNVICSVVFQKRFDYKDQNFLTLMKRFNENFRILNSPWIQVCNNFPLLIDCFPGTHNKVLKNVALTRSYIREKVKEHQASLDVNNPRDFIDCFLIKMEQEKDNQKSEFNIENLVGTVADLFVAGTETTSTTLRYGLLLLLKHPEVTAKVQEEIDHVIGRHRSPCMQDRSHMPYTDAVVHEIQRYSDLVPTGVPHAVTTDTKFRNYLIPKGTTIMALLTSVLHDDKEFPNPNIFDPGHFLDKNGNFKKSDYFMPFSAGKRICAGEGLARMELFLFLTTILQNFNLKSVDDLKNLNTTAVTKGIVSLPPSYQICFIPV
For the molecule B3, the Km in data set [4] is 5.0 ± 3.1 µM and 2.2 ± 1.1 µM.

B4: CYP2C8*3 (Homo sapiens; K399R/R139K) (protein)
chain: B3 chain with R139K, K399R
With B4, the Km in data set [5] is 18.8 ± 8.3 µM and 8.6 ± 2.5 µM.

B5: CYP3A5 (Homo sapiens) (protein)
chain: MDLIPNLAVETWLLLAVSLVLLYLYGTRTHGLFKRLGIPGPTPLPLLGNVLSYRQGLWKFDTECYKKYGKMWGTYEGQLPVLAITDPDVIRTVLVKECYSVFTNRRSLGPVGFMKSAISLAEDEEWKRIRSLLSPTFTSGKLKEMFPIIAQYGDVLVRNLRREAEKGKPVTLKDIFGAYSMDVITGTSFGVNIDSLNNPQDPFVESTKKFLKFGFLDPLFLSIILFPFLTPVFEALNVSLFPKDTINFLSKSVNRMKKSRLNDKQKHRLDFLQLMIDSQNSKETESHKALSDLELAAQSIIFIFAGYETTSSVLSFTLYELATHPDVQQKLQKEIDAVLPNKAPPTYDAVVQMEYLDMVVNETLRLFPVAIRLERTCKKDVEINGVFIPKGSMVVIPTYALHHDPKYWTEPEEFRPERFSKKKDSIDPYIYTPFGTGPRNCIGMRFALMNMKLALIRVLQNFSFKPCKETQIPLKLDTQGLLQPEKPIVLKVDSRDGTLSGE
Turning to B5, the Km in data set [6] was determined as 19.1 ± 5.0 µM.

B6: UGT 1A3 (Homo sapiens) (protein)
chain: GKVLVVPIDGSHWLSMREVLRELHARGHQAVVLTPEVNMHIKEENFFTLTTYAISWTQDEFDRHVLGHTQLYFETEHFLKKFFRSMAMLNNMSLVYHRSCVELLHNEALIRHLNATSFDVVLTDPVNLCAAVLAKYLSIPTVFFLRNIPCDLDFKGTQCPNPSSYIPRLLTTNSDHMTFMQRVKNMLYPLALSYICHAFSAPYASLASELFQREVSVVDILSHASVWLFRGDFVMDYPRPIMPNMVFIGGINCANRKPLSQEFEAYINASGEHGIVVFSLGSMVSEIPEKKAMAIADALGKIPQTVLWRYTGTRPSNLANNTILVKWLPQNDLLGHPMTRAFITHAGSHGVYESICNGVPMVMMPLFGDQMDNAKRMETKGAGVTLNVLEMTSEDLENALKAVINDKSYKENIMRLSSLHKDRPVEPLDLAVFWVEFVMRHKGAPHLRPAAHDLTWYQYHSLDVIGFLLAVVLTVAFITFKCCAYGYRKCLGKKGRVKKAHKSKTH
Turning to B6, the Km in data set [7] is reported as 389 ± 53 µM.
